Assay results reported in patent publication US20210180067, “NUCLEIC ACID APTAMERS” (UNIVERSITY OF IOWA RESEARCH FOUNDATION, published 2021).

Assays:
[1] = biological target: T1, CD25 (IL-2 receptor alpha, IL2RA) (Homo sapiens, UniProt P01589 P01589:22-240); assay: pulldown; 100 nM RNA, CD25 Dynabeads, 2 mM CaCl2, 37 C, RT-qPCR; prefers unoccupied CD25; details: tags: His-tag; Thermo Fisher
Method: (§1) Aptamer binding to recombinant CD25 protein or CD25-IL2 receptor-ligand complex-coated Dynabeads was measured as follows. Streptavidin-coated Dynabeads, antibody-coupling kit, and Dynabeads for His-tagged protein binding were obtained from Thermo Fisher. Histidine-tagged recombinant human CD25 (Thermo Fisher, USA) was coated onto His-tag-binding Dynabeads (Thermo Fisher, USA). Protein coated beads were blocked with binding buffer [HEPES-buffered saline with 2 mM CaCl2) containing 0.1 mg/ml BSA and tRNA. In cases where CD25-IL2 complexes were tested, equimolar amounts of IL2 was incubated with CD25-coated beads for 30 minutes at 37 degrees Celsius and the unbound IL2 was washed away. Folded aptamers were then incubated with CD25- or CD25-IL2-coated beads at a concentration of 100 nM for 30 minutes at 37 degrees Celsius under rotation. Beads were then washed thrice with binding buffer at 37 degrees Celsius. Bound RNA aptamers were extracted using Trizol spiked with M12-23 reference control and were quantified using SyBR green-based RT-qPCR assay. The bead-bound SEL2 aptamers were normalized to M12-23 reference control before further analysis. The values obtained for Treg-binding aptamers were normalized to the negative control aptamer, C-248, and plotted. Nucleotides corresponding to the N20 region are underlined and italicized.

CD25 (IL2RA)-IL2 complex [2] = biological target: T2, CD25 (IL2RA)-IL2 complex (Homo sapiens, UniProt P01589;P60568 P01589:22-240,P60568:21-153); assay: pulldown; binding increased vs unoccupied CD25; 2 mM CaCl2, 37 C, RT-qPCR; correlates with IL2 occupancy (R2=0.724); details: tags: CD25 His-tagged, Thermo Fisher
Method: as §1

[3] = biological target: T1, CD25 (IL-2 receptor alpha, IL2RA); assay: pulldown; 100 nM RNA, CD25 Dynabeads, HEPES saline 2 mM CaCl2, BSA, tRNA, 37 C, RT-qPCR; greater than C-248; details: tags: His-tag; Thermo Fisher
Method: as §1

[4] = biological target: T1, CD25 (IL-2 receptor alpha, IL2RA); assay: pulldown; 100 nM RNA, CD25 Dynabeads, 2 mM CaCl2, 37 C, RT-qPCR; greater than C-248; details: tags: His-tag; Thermo Fisher
Method: as §1

CD25 (IL2RA)-IL2 complex [5] = biological target: T2, CD25 (IL2RA)-IL2 complex; assay: pulldown; binding increased vs unoccupied CD25; 2 mM CaCl2, 37 C, RT-qPCR; correlates with IL2 occupancy (R2=0.661); details: tags: CD25 His-tagged, Thermo Fisher
Method: as §1

CD25 (IL2RA)-IL2 complex [6] = biological target: T2, CD25 (IL2RA)-IL2 complex; assay: pulldown; similar binding to unoccupied CD25 and complex; 2 mM CaCl2, 37 C, RT-qPCR; details: tags: CD25 His-tagged, Thermo Fisher
Method: as §1

[7] = biological target: T1, CD25 (IL-2 receptor alpha, IL2RA); assay: pulldown; negative control used for normalisation; 2 mM CaCl2, 37 C, RT-qPCR; details: tags: His-tag; Thermo Fisher
Method: as §1

T2 sequence (P01589 22-240, chain 1 of 2): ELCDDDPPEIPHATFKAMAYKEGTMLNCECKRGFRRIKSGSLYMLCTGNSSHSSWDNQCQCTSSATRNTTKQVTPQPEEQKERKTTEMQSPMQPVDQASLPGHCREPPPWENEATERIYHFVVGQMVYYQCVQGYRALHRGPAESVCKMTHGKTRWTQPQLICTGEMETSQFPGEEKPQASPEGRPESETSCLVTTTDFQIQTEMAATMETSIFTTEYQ
T2 sequence (P60568 21-153, chain 2 of 2): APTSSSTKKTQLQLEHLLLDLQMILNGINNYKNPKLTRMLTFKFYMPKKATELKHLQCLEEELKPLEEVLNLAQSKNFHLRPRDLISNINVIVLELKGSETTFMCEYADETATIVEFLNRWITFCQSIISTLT
T1 sequence (P01589 22-240, one chain of several): as the sequence (P01589 22-240, chain 1 of 2) above

B1: Tr-8 (ssRNA)
RNA: GGGAGGACGAUGCGGGCCGUUGUUGUGUGCCGCCCCAGACGACUCGCCCGA
modifications: 2'-F C and U
binding result [1]: binds

B2: Tr-1 (ssRNA)
RNA: GGGAGGACGAUGCGGUCCUGUCGUCUGUUCGUCCCCAGACGACUCGCCCGA
modifications: 2'-F C and U
binding result (CD25 (IL2RA)-IL2 complex [2]): binds
binding result [3]: binds

B3: Tr-6 (ssRNA)
RNA: GGGAGGACGAUGCGGCGUUUCCUCUGGUUCGUCCCCAGACGACUCGCCCGA
modifications: 2'-F C and U
binding result [1]: binds

B4: Tr-7 (ssRNA)
RNA: GGGAGGACGAUGCGGUGAGUCGUUCCCUUCGUCCCCAGACGACUCGCCCGA
modifications: 2'-F C and U
binding result [4]: binds
binding result (CD25 (IL2RA)-IL2 complex [5]): binds

B5: Tr-11 (ssRNA)
RNA: GGGAGGACGAUGCGGAUUCUGGUUACUGGCCGCCCCAGACGACUCGCCCGA
modifications: 2'-F C and U
binding result (CD25 (IL2RA)-IL2 complex [6]): binds
binding result [4]: binds

B6: C-248 (ssRNA)
RNA: GGGAGGACGAUGCGGCACACCGAAAUGUCCCGACUCAGACGACUCGCCCGA
modifications: 2'-F C and U
binding result [7]: no binding
